Data reported in patent CN115707716A (DANSHENG MEDICAL TECH SHANGHAI CO LTD, dated 2023).

Key:
VEGF-A165 = target: T1, VEGF-A165 (UniProt P15692-4 27-191); assay: ELISA, VEGF coated at 100 ng/well, HRP goat anti-human Fab detection
T1 construct: Isoform VEGF-A165; also called VEGF蛋白

TGF-β1蛋白 [1] = target: T2, TGF-β1蛋白 (UniProt P01137 279-390); assay: ELISA, TGF-β1 coated at 100 ng/well, HRP goat anti-human Fab detection
T2 construct: Bought protein

TGF-β1蛋白 [2] = target: T2, TGF-β1蛋白; assay: cell-based or functional assay

T2 sequence (P01137 279-390 limits assumed): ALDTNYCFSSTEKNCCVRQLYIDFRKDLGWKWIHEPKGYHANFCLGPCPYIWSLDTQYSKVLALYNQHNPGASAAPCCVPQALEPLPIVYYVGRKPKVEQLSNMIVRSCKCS
T1 sequence (P15692 other isoform, or with tags, fused parts or gaps limits assumed): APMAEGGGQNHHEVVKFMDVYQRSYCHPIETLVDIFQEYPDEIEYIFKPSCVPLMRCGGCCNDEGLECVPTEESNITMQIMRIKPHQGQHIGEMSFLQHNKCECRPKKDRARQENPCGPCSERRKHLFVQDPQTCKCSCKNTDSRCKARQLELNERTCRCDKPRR

B1: 抗TGF-β单抗12.7 (antibody, human IgG4 S228P, kappa, V domains shown)
VH: QVQLVQSGAEVKKPGASVKVSCKASGYTFTSEWMNWVRQAPGQGLEWMGQIFPALGSTNYNEMYEGRVTMTTDTSTSTAYMELRSLRSDDTAVYYCARGIGNYALDAMDYWGQGTLVTVSS
VL: DIQMTQSPSSLSASVGDRVTITCRASESVDFYGNSFMHWYQQKPGKAPKLLIYLASNLESGVPSRFSGSGSGTDFTLTISSLQPEDFATYYCQQNIEDPLTFGGGTKVEIKR
notes: also called mAb127
- binding result (VEGF-A165): no binding (tested: 200nM)
- EC50 (TGF-β1蛋白 [1]): 0.202 nM
- SMAD3报告基因抑制实验 IC50 (TGF-β1蛋白 [2]): 0.337 nM
